IC50 data for 1 substance are collected here from patent US20050249750A1.

Usually IC50 stands for the point on the concentration scale where inhibition reaches its midpoint. High values mean weaker potency in that assay, low ones greater potency in that assay.

Test [1] concerns the target soluble DR 7 (DRB1*0701) class II molecules purified from EKR EBV-B cells (human) (UniProt P01903). As to the kind of experiment: peptide competition ELISA, soluble DR 7, biotinylated indicator GFK(A)7, pH 5. For orientation: In an ELISA, binding on a coated surface is turned into a signal by an enzyme label.
Test [2] addresses soluble DR 2a (DRB5*0101) molecules isolated from L cells transfectant L416.3 (human) (UniProt P01903).
Test [3] concerns the target soluble DR 1 (DRB1*0101) class II molecules purified from HOM-2 EBV-B cells (human) (UniProt P01903). As to the kind of experiment: peptide competition ELISA, soluble DR 1, biotinylated indicator GFK(A)7.
Test [4] concerns the target soluble DR 11 (DRB1*1101) class II molecules purified from SWEIG EBV-B cells (human) (UniProt P01903). As to the kind of experiment: peptide competition ELISA, soluble DR 11, biotinylated indicator TT831-843.
For test [5], the target named is soluble DR4 (DRB1*0401) class II molecules purified from BSM or PREISS EBV-B cells (human) (UniProt P01903). As to the kind of experiment: peptide competition ELISA, soluble DR 4, biotinylated indicator UD4.
Test [6] deals with soluble DR 8 (DRB1*0801) class II molecules purified from BM9 EBV-B cells (human) (UniProt P01903). Nature of the test: peptide competition ELISA, soluble DR 8, biotinylated indicator GYR(A)6L.

As to “HA307-319 peptide derived from influenza hemagglutinin”, the IC50 in test [1] came out at 100 nM; in test [2], 30 nM; in test [3], 100 nM; in test [4], 1000 nM; in test [5], 1000 nM; in test [6], 5 µM.
